Test results published in patent US20170369592A1, “NOVEL ANTI-FIBROBLAST ACTIVATION PROTEIN (FAP) ANTIBODIES AND USES DERIVED THEREOF” (Mabimmune Diagnostics AG, priority 2015, published 2017).
Values belong to the molecule of their own block, whether it stands above or below them.

What was measured:
[1] = tested on: tumor growth in NSCLC and MCRC; conditions: mouse models; cited from earlier work
[2] = cyclization; cited from earlier work
[3] = pH 7.8; cited from earlier work
[4] = target: directly coated FAP peptides mixture (cFAP); assay: Direct ELISA, mixture of FAP-specific peptides directly coated; assay type: binding, human; conditions: non-linear regression
Procedure: ELISA assays were performed with varying antibody concentrations to validate the binding of the exemplary antibodies of the present invention to FAP and to be able to determine their half maximal effective concentration (EC50). For the exemplary recombinant human NI-206.82C2, NI-206.59B4, NI-206.22F7, NI-206.27E8, NI-206.12G4 and NI-206.17A6 antibodies, 96-well microplates (Costar, Corning, USA) were coated with FAP, with a mixture of the 3 peptides or with BSA (Sigma-Aldrich, Buchs, Switzerland) diluted to a concentration of 5 μg/ml in carbonate ELISA coating buffer (15 mM Na2CO3, 35 mM NaHCO3, pH 9.4) for the direct ELISA. For the capture ELISA, the microplates were coated with mouse anti-His monoclonal antibody (Clontech) diluted to a concentration of 3 μg/ml in PBS, the plates were then blocked, FAP or BSA were diluted to a concentration of 2 μg/ml in PBS and added to the plates to be captured. The binding efficiency of the antibodies was then tested. The exemplary NI-206.82C2 antibody specifically and strongly binds to the captured FAP and less efficiently to the directly coated FAP. The exemplary NI-206.59B4 antibody specifically, strongly and similarly binds to the captured FAP and to the directly coated FAP.
The EC50 values were estimated by a non-linear regression using GraphPad Prism (San Diego, USA) software. […] The binding of NI-206.12G4 towards sFAP was not tested.

[5] = target: T1, recombinant human Fibroblast Activation Protein (FAP) (human, UniProt Q12884 26-760); assay: ELISA, tagged rhFAP captured on the plate with an anti-tag antibody, HRP-labelled NI-206.82C2, TMB, OD 450 nm; axis unit as printed (pM) [continued) B]
T1 construct: Bought recombinant his-tagged protein; Captured (sFAP) and directly coated (FAP) are two assay formats of this one molecule; also called rFAP; rhuFAP; not shown: N-terminus 6x histidine tag
T1 sequence (looked up): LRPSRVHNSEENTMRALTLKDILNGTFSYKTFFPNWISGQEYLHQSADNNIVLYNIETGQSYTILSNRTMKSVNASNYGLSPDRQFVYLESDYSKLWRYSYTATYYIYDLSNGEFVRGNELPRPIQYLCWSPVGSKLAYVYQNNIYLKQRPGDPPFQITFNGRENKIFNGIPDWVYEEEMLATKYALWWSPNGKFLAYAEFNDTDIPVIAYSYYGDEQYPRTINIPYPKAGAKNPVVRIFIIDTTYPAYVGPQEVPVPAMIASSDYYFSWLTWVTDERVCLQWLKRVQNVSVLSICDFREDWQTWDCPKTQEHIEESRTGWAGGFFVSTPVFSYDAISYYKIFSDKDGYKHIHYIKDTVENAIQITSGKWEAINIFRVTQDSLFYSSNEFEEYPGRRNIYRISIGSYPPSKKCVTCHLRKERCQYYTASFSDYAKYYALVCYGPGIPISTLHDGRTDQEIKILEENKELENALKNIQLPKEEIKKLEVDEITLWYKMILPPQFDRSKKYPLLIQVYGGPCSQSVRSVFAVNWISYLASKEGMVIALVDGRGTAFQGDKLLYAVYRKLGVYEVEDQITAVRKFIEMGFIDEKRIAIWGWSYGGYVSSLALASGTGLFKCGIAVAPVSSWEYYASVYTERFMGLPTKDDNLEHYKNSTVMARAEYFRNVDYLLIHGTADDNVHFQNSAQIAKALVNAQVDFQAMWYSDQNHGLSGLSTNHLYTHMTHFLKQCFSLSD
Excerpt: Active recombinant human enzymes evaluated in this assay include: Fibroblast Activation Protein (FAP; Sino Biologicals, 10464-H07H), Dipeptidyl Peptidase IV (DPPIV, BPS Bioscience 80040), Dipeptidyl Peptidase 8 (DPP8, BPS Bioscience 80080), Dipeptidyl Peptidase 9 (DPP9, BPS Bioscience 80080), and Prolyl Oligopeptidase/Prolyl Endopeptidase (POP/PREP, BPS Bioscience 80105). Each recombinant peptidase was expressed with a purification tag, and attached to the 96 well ELISA plate using either a mouse anti-Histidine antibody (CloneTech), or a mouse anti-Glutathione S-transferase (GST, Sino Biologicals, 111213-MM02) tag antibody. […] H-Gly-Pro-AMC (ATT Bioquest, 13450) was used to validate the presence and activity of DPP4, DPP9, and DPP8. Z-Gly-Pro-AMC (BaChem, 11145) was used to evaluate the activity of FAP and POP/PREP. […] Following a washing step, bound antibody was detected using 3,3′,5,5′-Tetramethylbenzidine (TMB) substrate.

[6] = target: T2, active recombinant murine FAP (mouse, UniProt P97321 26-761); assay: cell-based or functional assay
T2 sequence (looked up): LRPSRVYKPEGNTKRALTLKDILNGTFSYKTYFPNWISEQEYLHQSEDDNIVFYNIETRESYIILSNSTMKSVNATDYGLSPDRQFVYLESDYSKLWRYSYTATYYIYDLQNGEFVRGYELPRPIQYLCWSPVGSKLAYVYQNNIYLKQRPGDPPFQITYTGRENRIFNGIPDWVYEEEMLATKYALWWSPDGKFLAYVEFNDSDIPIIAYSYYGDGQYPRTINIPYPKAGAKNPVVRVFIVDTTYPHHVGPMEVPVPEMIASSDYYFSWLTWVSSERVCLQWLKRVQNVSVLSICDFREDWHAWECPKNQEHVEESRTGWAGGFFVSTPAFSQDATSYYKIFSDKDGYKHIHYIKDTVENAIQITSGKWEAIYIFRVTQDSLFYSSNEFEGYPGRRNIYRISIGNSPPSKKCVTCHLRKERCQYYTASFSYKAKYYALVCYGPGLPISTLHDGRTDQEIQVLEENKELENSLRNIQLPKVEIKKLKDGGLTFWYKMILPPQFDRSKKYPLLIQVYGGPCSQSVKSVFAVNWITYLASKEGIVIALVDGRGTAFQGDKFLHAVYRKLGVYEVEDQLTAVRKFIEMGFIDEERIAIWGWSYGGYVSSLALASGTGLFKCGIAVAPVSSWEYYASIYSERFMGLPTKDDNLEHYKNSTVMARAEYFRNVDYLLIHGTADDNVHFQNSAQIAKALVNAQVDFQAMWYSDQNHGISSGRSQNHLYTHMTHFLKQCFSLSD

[7] = target: T1, recombinant human Fibroblast Activation …; assay: cell-based or functional assay
[8] = target: T3, recombinant human Dipeptidyl Peptidase IV (DPPIV) (human, UniProt P27487 29-766, limits assumed); assay: ELISA, recombinant human CD26 on the plate, NI-206.82C2 detected with HRP goat anti-human antibody, OD450
T3 construct: Bought; also called rhDPPIV; DPP4
T3 sequence (P27487 29-766 limits assumed): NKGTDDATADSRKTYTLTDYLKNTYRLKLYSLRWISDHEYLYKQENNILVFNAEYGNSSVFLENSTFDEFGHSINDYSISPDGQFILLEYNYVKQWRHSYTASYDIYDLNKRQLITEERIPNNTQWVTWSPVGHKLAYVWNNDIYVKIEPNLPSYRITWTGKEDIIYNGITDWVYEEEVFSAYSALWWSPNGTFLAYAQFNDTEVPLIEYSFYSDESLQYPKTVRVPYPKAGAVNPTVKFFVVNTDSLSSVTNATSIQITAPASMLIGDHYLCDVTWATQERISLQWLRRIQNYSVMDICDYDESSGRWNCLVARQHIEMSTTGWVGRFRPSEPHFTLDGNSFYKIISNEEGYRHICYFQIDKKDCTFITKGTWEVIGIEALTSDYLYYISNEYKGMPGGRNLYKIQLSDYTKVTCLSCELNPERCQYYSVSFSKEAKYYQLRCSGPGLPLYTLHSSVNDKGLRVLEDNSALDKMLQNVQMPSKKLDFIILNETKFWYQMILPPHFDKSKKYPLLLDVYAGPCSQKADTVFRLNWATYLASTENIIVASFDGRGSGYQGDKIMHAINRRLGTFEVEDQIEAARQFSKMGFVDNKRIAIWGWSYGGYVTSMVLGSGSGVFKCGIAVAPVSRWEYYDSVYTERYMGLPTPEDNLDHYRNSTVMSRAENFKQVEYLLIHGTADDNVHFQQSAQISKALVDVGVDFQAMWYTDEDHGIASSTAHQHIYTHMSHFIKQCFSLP

[9] = target: T1, recombinant human Fibroblast Activation …; assay: cell-based or functional assay; remark: listed apart in the source

Molecule: N[C@@H](CCC(=O)O)C(=O)N1CCC[C@H]1B(O)O [PT-630]
- tumor growth [1]: abrogate tumor growth
- in-vivo stability [2]: poor in-vivo stability

Molecule: CC(C)[C@H](N)C(=O)N1CCC[C@H]1B(O)O [Talabostat, Val-boroPro]
- stability of inhibitory activity in aqueous media [3]: rapidly loses inhibitory activity

B1: NI-206.17A6: recombinant human-derived monoclonal anti-FAP antibody, variable regions in FIG. 1 (antibody, V domains shown)
VH: QVQLQESGPGLVRSTETLSLTCLVSGDSINSHYWSWLRQSPGRGLEWIGYIYYTGPTNYNPSLKSRVSISLGTSKDQFSLKLSSVTAADTARYYCARNKVFWRGSDFYYYMDVWGKGTTVTVSS
VL: EIVLTQSPGTLSLSLGERATLSCRASQSLANNYLAWYQQKPGQAPRLLMYDASTRATGIPDRFSGSGSGTDFTLTISRLEPEDFAVYYCQQFVTSHHMYIFGQGTKVEIK
- EC50, binding to directly coated FAP peptides mixture (cFAP) [4]: did not show any binding

B2: NI-206.82C2 (antibody, V domains shown)
VH: QVQLQQSGPGLVKPSQTLSLTCAISGDSVSSNSVTWNWIRQSPSRGLEWLGRTYYRSKWYNDYAVSVKGRITINPDTSKNQFYLQLKSVTPEDAAVYYCARDSSILYGDYWGQGTLVTVSS
VL: QAVLTQPSSLSASPGASASLTCTLPSGINVGTYRIFWFQQKPGSPPQYLLSYKSDSDNHQGSGVPSRFSGSKDASANAGILLISGLQSEDEADYYCMIWHSSAWVFGGGTKLTVL
notes: Labelled with HRP or Cy5 in some assays; also called HRP-labelled 82C2
- EC50 (read off the curve) [5]: 0.04 to 0.05 nM
- IC50 (read off the curve) [continued) B] [6]: ~60 nM
- IC50, inhibition of rhFAP gelatinase activity (DQ-gelatin cleavage) [7]: 7.7 nM
- binding result [8]: no binding (tested: 20 nM)
- IC50 (read off the curve) [9]: ~10 nM

B3: NI-206.27E8: recombinant human-derived monoclonal anti-FAP antibody, variable regions in FIG. 1 (antibody, V domains shown)
VH: EVQLVESGGGLVEPGGSLRLSCAASGFTFSDAWMNWVRQAPGKGLEWVGRIKTKSDGGTTDYAAPVRGRFSISRDDSKNTLFLEMNSLKTEDTAIYYCFITVIVVSSESPLDHWGQGTLVTVSS
VL: SYELTQPPSVSVSPGQTARITCSGDELPKQYAYWYQQKPGQAPVLVIYKDRQRPSGIPERFSGSSSGTTVTLTISGVQAEDEADYYCQSAYSINTYVIFGGGTKLTVL
- EC50, binding to directly coated FAP peptides mixture (cFAP) [4]: did not show any binding

Results, then the molecule that gave them:

- EC50, binding to directly coated FAP peptides mixture (cFAP) [4]: did not show any binding
B4: NI-206.12G4: recombinant human-derived monoclonal anti-FAP antibody, variable regions in FIG. 1 (antibody, V domains shown)
VH: EVQLVESGGGLVKPGGSLRLSCAASGFTFSDYYMSWIRQAPGKGLEWISYISSGSSYTNYADSVKGRFTISRDNAKKSVYLEVNGLTVEDTAVYYCARVRYGDREMATIGGFDFWGQGTLVTVSS
VL: SYELTQPPSVSVSPGQTARITCSGDALPKQYAYWYQQSPGQAPVLVIYKDSERPSGIPERFSGSSSGTTVTLTISGVQAEDEADYYCQSADSGGTSRIFGGGTKLTVL

- EC50, binding to directly coated FAP peptides mixture (cFAP) [4]: did not show any binding
B5: NI-206.59B4: recombinant human-derived monoclonal anti-FAP antibody, variable regions in FIG. 1 (antibody, V domains shown)
VH: QVQLVQSGAEVKKPGASVKVSCKTSGYTFTDYYIHWVRQAPGQGLEWMGWINPNRGGTNYAQKFQGRVTMTRDTSIATAYMELSRLRSDDTAVYYCATASLKIAAVGTFDCWGQGTLVTVSS
VL: SYELTQPPSVSVSPGQTARITCSGDALSKQYAFWFQQKPGQAPILVIYQDTKRPSGIPGRFSGSSSGTTVTLTISGAQADDEADYYCQSADSSGTYVFGTGTKVTVL
